Source: the supplement of paper PMC9876800

Tested on: peptide library, one residue held at a place counted from the S/T acceptor
Assay: relative phosphorylation of the sub-library (ratio to the mean residue at this position); higher = residue favoured
Conditions: human
Outline: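 Purified recombinant kinases, either human or orthologue constructs, were incubated in 384-well plates with biotinylated degenerate peptide sub-libraries. Each sub-library fixed one residue at one position around a central Ser/Thr. Peptides at 50 μM and 50 μM ATP spiked with γ-32P-ATP were used for 90 min under kinase-specific conditions, and spots on streptavidin membranes were phosphorimaged and quantified by densitometry. Relative sub-library phosphorylation is expressed as a ratio to the mean residue at that position.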

Chain of DSTYK, construct: Full length (Q6XUX3 whole entry, looked up): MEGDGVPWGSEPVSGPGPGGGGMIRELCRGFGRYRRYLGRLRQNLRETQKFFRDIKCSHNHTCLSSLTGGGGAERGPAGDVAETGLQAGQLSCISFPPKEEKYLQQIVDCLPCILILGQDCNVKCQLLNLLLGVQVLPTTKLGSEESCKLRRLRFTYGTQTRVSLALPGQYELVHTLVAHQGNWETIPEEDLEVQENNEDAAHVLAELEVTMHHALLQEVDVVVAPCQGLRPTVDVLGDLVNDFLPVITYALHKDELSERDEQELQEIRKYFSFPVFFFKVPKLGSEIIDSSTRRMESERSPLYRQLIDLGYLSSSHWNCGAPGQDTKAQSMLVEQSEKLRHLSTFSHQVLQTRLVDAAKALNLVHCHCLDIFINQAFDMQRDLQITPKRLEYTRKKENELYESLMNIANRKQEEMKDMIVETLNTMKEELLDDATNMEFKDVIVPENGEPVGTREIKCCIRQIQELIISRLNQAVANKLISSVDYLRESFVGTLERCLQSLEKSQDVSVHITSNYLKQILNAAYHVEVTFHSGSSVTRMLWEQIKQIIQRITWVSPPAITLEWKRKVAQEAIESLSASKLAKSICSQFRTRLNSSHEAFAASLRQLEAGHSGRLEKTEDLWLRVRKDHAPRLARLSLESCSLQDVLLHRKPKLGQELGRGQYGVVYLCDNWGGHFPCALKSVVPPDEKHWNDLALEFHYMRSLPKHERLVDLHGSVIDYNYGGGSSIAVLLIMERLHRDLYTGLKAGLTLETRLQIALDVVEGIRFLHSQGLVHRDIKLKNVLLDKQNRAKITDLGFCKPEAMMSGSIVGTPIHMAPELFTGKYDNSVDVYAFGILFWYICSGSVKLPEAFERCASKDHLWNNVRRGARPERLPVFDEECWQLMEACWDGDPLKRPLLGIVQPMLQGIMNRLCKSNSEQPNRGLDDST
Chain of DAPK1, construct: aa1-363 (P53355 1-363, looked up): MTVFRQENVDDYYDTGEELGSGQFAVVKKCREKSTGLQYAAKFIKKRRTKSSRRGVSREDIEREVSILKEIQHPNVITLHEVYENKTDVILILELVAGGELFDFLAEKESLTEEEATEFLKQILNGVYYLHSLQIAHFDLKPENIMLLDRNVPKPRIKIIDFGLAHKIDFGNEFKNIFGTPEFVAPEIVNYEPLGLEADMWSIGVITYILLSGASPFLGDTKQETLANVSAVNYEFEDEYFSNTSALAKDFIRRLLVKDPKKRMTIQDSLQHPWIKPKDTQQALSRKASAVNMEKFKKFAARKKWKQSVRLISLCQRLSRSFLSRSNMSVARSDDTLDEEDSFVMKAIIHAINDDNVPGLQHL
Chain of CSNK1G1, construct: aa21-end (Q9HCP0 21-422, looked up): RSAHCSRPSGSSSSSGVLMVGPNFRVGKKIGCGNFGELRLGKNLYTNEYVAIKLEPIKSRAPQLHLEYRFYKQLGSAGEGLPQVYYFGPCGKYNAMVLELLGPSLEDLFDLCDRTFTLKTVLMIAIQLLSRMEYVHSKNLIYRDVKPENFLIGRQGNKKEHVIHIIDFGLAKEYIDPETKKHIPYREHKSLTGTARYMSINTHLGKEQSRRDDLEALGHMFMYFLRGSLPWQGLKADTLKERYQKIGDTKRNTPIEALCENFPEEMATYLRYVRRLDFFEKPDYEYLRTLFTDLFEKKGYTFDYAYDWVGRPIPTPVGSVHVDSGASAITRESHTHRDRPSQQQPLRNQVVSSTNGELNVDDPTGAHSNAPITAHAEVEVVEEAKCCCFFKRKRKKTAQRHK

CSNK1G1, construct: aa21-end (from UniProt Q9HCP0)
relative phosphorylation
Conditions	at +1	at +2	at +3	at +4	at -1	at -2	at -3	at -4	at -5
A fixed	0.872	1.05	1.29	1.13	1.38	2.1	0.918	1.23	1.22
D fixed	0.317	0.551	0.757	0.828	0.406	1	5.14	1.25	1.11
E fixed	0.4	0.293	0.823	0.662	0.47	1.13	2.32	1.12	0.901
F fixed	0.853	1.21	1.31	1.45	0.713	0.511	0.471	0.984	0.913
G fixed	0.611	1.02	1.62	1.19	1.53	1.19	0.734	1.07	1.04
H fixed	0.731	1.71	1.03	0.976	0.983	0.714	0.633	0.918	1.1
I fixed	2.43	1.06	0.755	0.921	0.927	1.11	0.42	0.799	0.734
K fixed	0.461	1.03	0.731	0.812	1.27	0.674	0.644	0.981	1.44
L fixed	2.32	0.922	0.962	0.894	1.06	0.949	0.482	0.81	0.892
M fixed	1.77	0.951	0.957	0.943	1.01	0.63	0.389	0.796	0.801
N fixed	0.619	0.976	0.842	0.786	0.597	1.53	0.758	0.877	1.02
P fixed	0.326	0.369	0.774	1.15	1.36	1.08	0.646	1	0.87
Q fixed	0.685	0.798	0.732	0.839	0.886	1.08	0.546	0.76	0.798
R fixed	0.771	1.01	0.884	0.713	1.28	0.919	1.07	0.814	1.05
V fixed	2.03	1.01	0.76	0.947	0.978	1.26	0.582	0.763	0.875
W fixed	0.861	1.25	1.4	1.35	1.25	0.608	0.636	1.72	1.24
Y fixed	0.935	1.79	1.37	1.41	0.898	0.511	0.604	1.11	1
pThr fixed	0.575	0.524	0.83	1.73	0.534	3.07	34	4.36	1.61
pTyr fixed	0.734	3.17	4.7	1.83	0.64	2.15	5.42	3.67	2.21

DAPK1, construct: aa1-363 (from UniProt P53355)
relative phosphorylation
Conditions	at +1	at +2	at +3	at +4	at -1	at -2	at -3	at -4	at -5
A fixed	0.752	0.793	0.813	0.817	0.743	1.27	0.626	0.975	0.91
D fixed	1.81	0.767	0.98	0.853	0.83	0.333	0.336	0.665	0.58
E fixed	1.76	0.953	0.979	0.857	0.63	0.347	0.374	0.82	0.622
F fixed	0.867	0.998	0.999	1.13	0.771	0.4	0.45	0.844	0.773
G fixed	1.06	0.651	0.978	0.935	0.847	0.662	0.62	0.937	1.03
H fixed	0.714	0.936	1	1.45	1.24	0.987	0.754	1	1.05
I fixed	0.877	1.05	1.95	0.913	0.701	0.308	0.418	0.871	0.955
K fixed	0.476	0.717	0.665	0.72	1.35	1.38	2.1	1.63	1.67
L fixed	0.792	1.92	1.39	0.777	1.18	0.354	0.385	0.796	1.02
M fixed	1.12	1.71	1.04	1.01	1.14	0.387	0.421	0.959	0.954
N fixed	1.47	0.871	0.818	0.985	1.4	0.672	0.483	0.93	0.842
P fixed	0.353	0.724	0.693	0.994	1.04	0.338	0.558	0.677	0.756
Q fixed	2.1	1.03	0.767	0.816	1.06	0.742	0.632	1.03	0.828
R fixed	0.659	1.06	0.832	0.912	1.64	7.29	7.46	2.31	2.36
V fixed	0.821	0.912	1.3	0.792	0.691	0.345	0.297	0.77	0.722
W fixed	0.698	0.827	0.856	1.7	0.695	0.732	0.592	0.856	0.73
Y fixed	0.68	1.08	0.936	1.33	1.05	0.46	0.502	0.928	1.2
pThr fixed	3.07	1.42	1.26	1.87	0.889	0.618	0.741	0.996	1.17
pTyr fixed	1.87	1.41	2.43	1.56	1.33	0.71	0.721	0.94	1.15

DSTYK, construct: Full length (from UniProt Q6XUX3)
relative phosphorylation
Conditions	at +1	at +2	at +3	at +4	at -1	at -2	at -3	at -4	at -5
A fixed	0.815	1.14	0.976	1.07	1.15	0.947	0.937	1.05	1.27
D fixed	0.5	0.992	0.68	0.984	1.7	2.48	1.41	1.8	1.74
E fixed	0.639	1.52	0.934	1.05	2	2.13	0.887	1.52	1.43
F fixed	1.11	0.465	1.04	0.754	0.584	0.828	2.04	1.12	0.944
G fixed	1.19	0.729	0.872	1.12	0.813	1.11	0.697	1.34	1.31
H fixed	0.834	1.08	1.25	0.955	0.924	1.15	1.02	0.96	1.12
I fixed	1.52	0.48	0.915	0.663	0.577	0.701	1.07	0.721	0.619
K fixed	0.434	1.85	1.09	1.29	0.93	0.366	0.453	0.718	1.05
L fixed	1.54	0.461	1.1	0.754	0.97	1.25	1.7	0.862	0.732
M fixed	1.55	0.667	0.977	0.837	0.911	1.1	1.36	0.744	0.698
N fixed	0.878	1.3	0.83	1.11	1.48	1.03	0.676	0.908	0.935
P fixed	0.218	0.587	0.738	1.45	0.324	0.228	0.513	0.777	0.916
Q fixed	1.21	1.29	1.02	1.15	1.31	1.04	0.692	0.793	0.773
R fixed	0.499	2.58	1.3	1.23	1.2	0.467	0.471	0.639	0.835
V fixed	1.65	0.685	1.08	0.734	0.667	0.765	0.6	0.598	0.733
W fixed	0.993	0.595	1.09	1.04	0.682	0.717	1.29	1.63	1.17
Y fixed	1.41	0.569	1.11	0.797	0.774	0.69	1.19	0.819	0.722
pThr fixed	1.23	1.43	0.787	1.09	0.845	1.66	0.996	1.03	1.04
pTyr fixed	2.22	0.801	0.882	0.912	1.84	1.21	1.13	0.961	1.09

DYRK2, construct: Full length (from UniProt Q92630)
relative phosphorylation
Conditions	at +1	at +2	at +3	at +4	at -1	at -2	at -3	at -4	at -5
A fixed	0.832	1.06	0.927	0.956	1.27	2.04	0.9	0.971	1.08
D fixed	0.164	1.08	0.82	1.14	0.655	0.308	0.592	0.84	0.894
E fixed	0.214	0.977	0.792	0.8	0.788	0.307	0.529	0.922	0.857
F fixed	0.209	0.977	0.929	1.23	0.7	0.518	0.457	0.843	1.03
G fixed	0.62	0.756	1.59	1.17	1.17	0.984	1.78	1.05	1.16
H fixed	0.227	0.923	0.915	0.967	0.948	0.562	0.796	0.894	1.14
I fixed	0.368	1.26	0.8	0.996	0.702	0.897	0.571	0.843	0.833
K fixed	0.357	0.502	0.548	0.832	1.12	0.495	0.756	0.859	0.859
L fixed	0.307	1.45	1.1	0.987	0.823	0.98	0.635	0.861	0.878
M fixed	0.314	1.48	1.05	1.22	1.16	0.915	0.608	0.969	0.843
N fixed	0.304	1.08	0.838	0.928	0.877	0.781	0.691	0.771	0.846
P fixed	9.47	0.703	2.79	1.16	1.68	2.97	0.988	1.26	0.99
Q fixed	0.466	1.1	0.893	0.992	1.05	0.597	0.735	0.826	0.819
R fixed	1.99	0.629	0.707	0.778	1.5	2.44	5.23	2.46	1.69
V fixed	0.772	1.23	0.682	0.918	0.898	1.28	0.573	0.781	0.833
W fixed	0.193	0.958	0.902	0.984	0.627	0.487	0.571	0.997	1.01
Y fixed	0.195	0.829	0.72	0.932	1.04	0.444	0.588	0.853	1.24
pThr fixed	0.399	1.77	0.745	1.28	0.415	0.56	0.647	1.03	1.03
pTyr fixed	0.476	0.786	0.709	0.928	0.953	0.452	0.79	1.19	1.19
